Source: patent US20220363757A1

Legend:
Assay in all cases: SPR, Fab over captured mutant LAG-3-Fc
[1] = biological target: human LAG-3 domain 1-2 Fc fusion, point mutation #66 G126A (human) (UniProt P18627)
[2] = biological target: human LAG-3 domain 1-2 Fc fusion, chimeric construct #10 (mutated region AA 70-77) (human) (UniProt P18627)
[3] = biological target: human LAG-3 domain 1-2 Fc fusion, point mutation #52 G108A (human) (UniProt P18627)
[4] = biological target: human LAG-3 domain 1-2 Fc fusion, chimeric construct #4 (mutated region AA 40-47) (human) (UniProt P18627)
Sequence of human LAG-3 domain 1-2 Fc fusion, chimeric construct #4 (mutated region AA 40-47) (human) (P18627 other isoform, or with tags, fused parts or gaps mutant): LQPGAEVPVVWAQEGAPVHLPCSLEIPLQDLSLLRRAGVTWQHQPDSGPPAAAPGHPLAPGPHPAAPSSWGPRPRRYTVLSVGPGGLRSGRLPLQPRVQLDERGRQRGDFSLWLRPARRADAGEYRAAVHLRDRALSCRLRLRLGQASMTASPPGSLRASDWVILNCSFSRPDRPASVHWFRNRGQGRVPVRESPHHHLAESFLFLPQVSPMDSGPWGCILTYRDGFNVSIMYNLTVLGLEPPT

[5] = biological target: human LAG-3 domain 1-2 Fc fusion, point mutation #7 P49A (human) (UniProt P18627)
Sequence of human LAG-3 domain 1-2 Fc fusion, point mutation #7 P49A (human) (P18627 23-266 P49A): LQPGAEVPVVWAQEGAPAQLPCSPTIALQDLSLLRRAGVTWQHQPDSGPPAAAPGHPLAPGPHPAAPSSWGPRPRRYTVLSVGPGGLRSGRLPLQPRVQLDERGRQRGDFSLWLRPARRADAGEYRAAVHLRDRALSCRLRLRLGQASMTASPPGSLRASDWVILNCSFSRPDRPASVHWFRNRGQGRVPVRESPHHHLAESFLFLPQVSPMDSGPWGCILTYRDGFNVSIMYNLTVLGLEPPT

[6] = biological target: human LAG-3 domain 1-2 Fc fusion, point mutation #33 P86A (human) (UniProt P18627)
[7] = biological target: human LAG-3 domain 1-2 Fc fusion, point mutation #17 Q66A (human) (UniProt P18627)
Sequence of human LAG-3 domain 1-2 Fc fusion, point mutation #17 Q66A (human) (P18627 23-266 Q66A): as the sequence (P18627 23-266 P49A) above, with A27P, Q44A counted along it

[8] = biological target: human LAG-3 domain 1-2 Fc fusion, point mutation #18 P67A (human) (UniProt P18627)
[9] = biological target: human LAG-3 domain 1-2 Fc fusion, chimeric construct #22 (mutated region AA 140-142) (human) (UniProt P18627)
Sequence of human LAG-3 domain 1-2 Fc fusion, chimeric construct #22 (mutated region AA 140-142) (human) (P18627 other isoform, or with tags, fused parts or gaps mutant): as the sequence (P18627 23-266 P49A) above, with A27P, R118T, A120K counted along it

[10] = biological target: human LAG-3 domain 1-2 Fc fusion, point mutation #67 R127A (human) (UniProt P18627)
Sequence of human LAG-3 domain 1-2 Fc fusion, point mutation #67 R127A (human) (P18627 23-266 R127A): as the sequence (P18627 23-266 P49A) above, with A27P, R105A counted along it

[11] = biological target: human LAG-3 domain 1-2 Fc fusion, chimeric construct #19 (mutated region AA 118-127) (human) (UniProt P18627)
[12] = biological target: human LAG-3 domain 1-2 Fc fusion, point mutation #9 D52A (human) (UniProt P18627)
Sequence of human LAG-3 domain 1-2 Fc fusion, point mutation #9 D52A (human) (P18627 23-266 D52A): as the sequence (P18627 23-266 P49A) above, with A27P, D30A counted along it

[13] = biological target: human LAG-3 domain 1-2 Fc fusion, point mutation #70 G130A (human) (UniProt P18627)
[14] = biological target: human LAG-3 domain 1-2 Fc fusion, chimeric construct #7 (mutated region AA 53-60) (human) (UniProt P18627)
Sequence of human LAG-3 domain 1-2 Fc fusion, chimeric construct #7 (mutated region AA 53-60) (human) (P18627 other isoform, or with tags, fused parts or gaps mutant): as the sequence (P18627 23-266 P49A) above, with A27P, L31P, S32N, L33F, A37G, G38W counted along it

[15] = biological target: human LAG-3 domain 1-2 Fc fusion, point mutation #35 A88S (human) (UniProt P18627)
Sequence of human LAG-3 domain 1-2 Fc fusion, point mutation #35 A88S (human) (P18627 23-266 A88S): as the sequence (P18627 23-266 P49A) above, with A27P, A66S counted along it

[16] = biological target: human LAG-3 domain 1-2 Fc fusion, chimeric construct #23 (mutated region AA 148-152) (human) (UniProt P18627)
Sequence of human LAG-3 domain 1-2 Fc fusion, chimeric construct #23 (mutated region AA 148-152) (human) (P18627 other isoform, or with tags, fused parts or gaps mutant): as the sequence (P18627 23-266 P49A) above, with A27P, R126H, A128F, H130R counted along it

[17] = biological target: human LAG-3 domain 1-2 Fc fusion, chimeric construct #21 (mutated region AA 128-137) (human) (UniProt P18627)
Sequence of human LAG-3 domain 1-2 Fc fusion, chimeric construct #21 (mutated region AA 128-137) (human) (P18627 23-266, stated change not applied): as the sequence (P18627 23-266 P49A) above, with A27P counted along it

[18] = biological target: human LAG-3 domain 1-2 Fc fusion, point mutation #55 S111A (human) (UniProt P18627)
[19] = biological target: human LAG-3 domain 1-2 Fc fusion, chimeric construct #3 (mutated region AA 40-41) (human) (UniProt P18627)
Sequence of human LAG-3 domain 1-2 Fc fusion, chimeric construct #3 (mutated region AA 40-41) (human) (P18627 other isoform, or with tags, fused parts or gaps mutant): as the sequence (P18627 23-266 P49A) above, with A18V, Q19H, A27P counted along it

[20] = biological target: human LAG-3 domain 1-2 Fc fusion, point mutation #10 S54A (human) (UniProt P18627)
Sequence of human LAG-3 domain 1-2 Fc fusion, point mutation #10 S54A (human) (P18627 23-266 S54A): as the sequence (P18627 23-266 P49A) above, with A27P, S32A counted along it

[21] = biological target: human LAG-3 domain 1-2 Fc fusion, chimeric construct #8 (mutated region AA 59-66) (human) (UniProt P18627)
[22] = biological target: human LAG-3 domain 1-2 Fc fusion, point mutation #59 Q117A (human) (UniProt P18627)
Sequence of human LAG-3 domain 1-2 Fc fusion, point mutation #59 Q117A (human) (P18627 23-266 Q117A): as the sequence (P18627 23-266 P49A) above, with A27P, Q95A counted along it

[23] = biological target: human LAG-3 domain 1-2 Fc fusion, point mutation #74 P138A (human) (UniProt P18627)
[24] = biological target: human LAG-3 domain 1-2 Fc fusion, chimeric construct #5 (mutated region AA 46-51) (human) (UniProt P18627)
[25] = biological target: human LAG-3 domain 1-2 Fc fusion, point mutation #25 H78A (human) (UniProt P18627)
Sequence of human LAG-3 domain 1-2 Fc fusion, point mutation #25 H78A (human) (P18627 23-266 H78A): as the sequence (P18627 23-266 P49A) above, with A27P, H56A counted along it

[26] = biological target: human LAG-3 domain 1-2 Fc fusion, point mutation #12 R57A (human) (UniProt P18627)
[27] = biological target: human LAG-3 domain 1-2 Fc fusion, chimeric construct #18 (mutated region AA 114-119) (human) (UniProt P18627)
Sequence of human LAG-3 domain 1-2 Fc fusion, chimeric construct #18 (mutated region AA 114-119) (human) (P18627 other isoform, or with tags, fused parts or gaps mutant): as the sequence (P18627 23-266 P49A) above, with A27P, L92Q, Q95L, P96S, R97H counted along it

[28] = biological target: human LAG-3 domain 1-2 Fc fusion, point mutation #16 H65A (human) (UniProt P18627)
[29] = biological target: human LAG-3 domain 1-2 Fc fusion, point mutation #68 Q128A (human) (UniProt P18627)
[30] = biological target: human LAG-3 domain 1-2 Fc fusion, point mutation #19 D68A (human) (UniProt P18627)
Sequence of human LAG-3 domain 1-2 Fc fusion, point mutation #19 D68A (human) (P18627 23-266 D68A): as the sequence (P18627 23-266 P49A) above, with A27P, D46A counted along it

[31] = biological target: human LAG-3 domain 1-2 Fc fusion, point mutation #14 T62A (human) (UniProt P18627)
[32] = biological target: human LAG-3 domain 1-2 Fc fusion, point mutation #79 S159A (human) (UniProt P18627)
Sequence of human LAG-3 domain 1-2 Fc fusion, point mutation #79 S159A (human) (P18627 23-266 S159A): as the sequence (P18627 23-266 P49A) above, with A27P, S137A counted along it

[33] = biological target: human LAG-3 domain 1-2 Fc fusion, point mutation #77 R148A (human) (UniProt P18627)
Sequence of human LAG-3 domain 1-2 Fc fusion, point mutation #77 R148A (human) (P18627 23-266 R148A): as the sequence (P18627 23-266 P49A) above, with A27P, R126A counted along it

Sequence of human LAG-3 domain 1-2 Fc fusion, point mutation #52 G108A (human) (P18627 23-266 G108A): as the sequence (P18627 23-266 P49A) above, with A27P, G86A counted along it

KD mutant/KD wild type [1]: 0.9 fold
KD mutant/KD wild type [2]: 1 fold
KD mutant/KD wild type [3]: 0.9 fold
KD mutant/KD wild type [4]: 1.3 fold
KD mutant/KD wild type [5]: 1.1 fold
KD mutant/KD wild type [6]: 2.7 fold
KD mutant/KD wild type [7]: 0.9 fold
KD mutant/KD wild type [8]: 1.1 fold
KD mutant/KD wild type [9]: 1.2 fold
KD mutant/KD wild type [10]: 0.7 fold
KD mutant/KD wild type [11]: 0.8 fold
KD mutant/KD wild type [12]: 0.8 fold
KD mutant/KD wild type [13]: 1.3 fold
KD mutant/KD wild type [14]: 1.4 fold
KD mutant/KD wild type [15]: 3.5 fold
KD mutant/KD wild type [16]: 0.8 fold
KD mutant/KD wild type [17]: 1.4 fold
KD mutant/KD wild type [18]: 0.9 fold
KD mutant/KD wild type [19]: 1.3 fold
KD mutant/KD wild type [20]: 0.8 fold
KD mutant/KD wild type [21]: 1.3 fold
KD mutant/KD wild type [22]: 0.8 fold
KD mutant/KD wild type [23]: 1 fold
KD mutant/KD wild type [24]: 1.3 fold
KD mutant/KD wild type [25]: 0.8 fold
KD mutant/KD wild type [26]: 0.7 fold
KD mutant/KD wild type [27]: 0.8 fold
KD mutant/KD wild type [28]: 1.2 fold
KD mutant/KD wild type [29]: 0.7 fold
KD mutant/KD wild type [30]: 0.9 fold
KD mutant/KD wild type [31]: 1.3 fold
KD mutant/KD wild type [32]: 0.8 fold
KD mutant/KD wild type [33]: 1.2 fold
Substance: Fab fragment of 25F7-Lag3.5 analogue
